According to the supplement of paper PMC11811203:

B1: THAP1; numbered along this chain (parent)
chain: MVQSCSAYGCKNRYDKDKPVSFHKFPLTRPSLCKEWEAAVRRKNFKPTKYSSICSEHFTPDCFKRECNNKLLKENAVPTIFLCTEPHDKKEDLLEPQEQLPPPPLPPPVSQVDAAIGLLMPPLQTPVNLSVFCDHNYTVEDTMHQRKRIHQLEQQVEKLRKKLKTAQQRCRRQERQLEKLKEVVHFQKEKDDVSERGYVILPNDYFEIVEVPA

Variants of: B1
Experiment: THAP1 transcriptional activity (GFP+/GFP- enrichment relative to wild-type constructs) (ratio to WT); higher = more THAP1 activity (PSMB5 reporter activation)
Conditions: with PSMB5 promoter-GFP reporter
Summary of the method: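 A site-saturation library of human THAP1 (residues 2–213, each changed to all 20 amino acids) was transduced by lentivirus at MOI ~0.3, in duplicate, into THAP1-knockout HEK-293T cells carrying mClover3 knocked in at endogenous PSMB5. After five days, BFP+ cells were sorted into GFP-dim and GFP-bright bins, and variants were counted by Illumina sequencing of genomic DNA amplicons. Activity is the replicate-mean bright/dim read fold change divided by the mean of wild-type synonymous constructs.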

Variant | THAP1 transcriptional activity
MVQSCSAYGCKNRYDKDKPVSFHKFPLTRPSLCKEWEAAVRRKNFKPTKYSSICSEHFTPDCFKRECNNKLLKENAVPTIFLCTEPHDKKEDLLEPQEQLPPPPLPPPVSQVDAAIGLLMPPLQTPVNLSVFCDHNYTVEDTMHQRKWIHQLEQQVEKLRKKLKTAQQRCRRQERQLEKLKEVVHFQKEKDDVSERGYVILPNDYFEIVEVPA [R148W] | 0.179
MVQSCSAYGCKNRYDKDKPVSFHKFPLTRPSLCKEWEAAVRRKNFKPTKYSSICSEHFTPDCFKRECNNKLLKENAVPTIFLCTEPHDKKEDLLEPQEQLPPPPLPPPVSQVDAAIGLLMPPLQTPVNLSVFCDHNYTVEDTMHQRKQIHQLEQQVEKLRKKLKTAQQRCRRQERQLEKLKEVVHFQKEKDDVSERGYVILPNDYFEIVEVPA [R148Q] | 0.425
MVQSCSAYGCKNRYDKDKPVSFHKFPLTRPSLCKEWEAAVRRKNFKPTKYSSICSEHFTPDCFKRECNNKLLKENAVPTIFLCTEPHDKKEDLLEPQEQLPPPPLPPPVSQVDAAIGLLMPPLQTPVNLSVFCDHNYTVEDTMHQRKMIHQLEQQVEKLRKKLKTAQQRCRRQERQLEKLKEVVHFQKEKDDVSERGYVILPNDYFEIVEVPA [R148M] | 0.261
MVQSCSAYGCKNRYDKDKPVSFHKFPLTRPSLCKEWEAAVRRKNFKPTKYSSICSEHFTPDCFKRECNNKLLKENAVPTIFLCTEPHDKKEDLLEPQEQLPPPPLPPPVSQVDAAIGLLMPPLQTPVNLSVFCDHNYTVEDTMHQRKPIHQLEQQVEKLRKKLKTAQQRCRRQERQLEKLKEVVHFQKEKDDVSERGYVILPNDYFEIVEVPA [R148P] | 0.18
MVQSCSAYGCKNRYDKDKPVSFHKFPLTRPSLCKEWEAAVRRKNFKPTKYSSICSEHFTPDCFKRECNNKLLKENAVPTIFLCTEPHDKKEDLLEPQEQLPPPPLPPPVSQVDAAIGLLMPPLQTPVNLSVFCDHNYTVEDTMHQRKVIHQLEQQVEKLRKKLKTAQQRCRRQERQLEKLKEVVHFQKEKDDVSERGYVILPNDYFEIVEVPA [R148V] | 0.412
MVQSCSAYGCKNRYDKDKPVSFHKFPLTRPSLCKEWEAAVRRKNFKPTKYSSICSEHFTPDCFKRECNNKLLKENAVPTIFLCTEPHDKKEDLLEPQEQLPPPPLPPPVSQVDAAIGLLMPPLQTPVNLSVFCDHNYTVEDTMHQRKLIHQLEQQVEKLRKKLKTAQQRCRRQERQLEKLKEVVHFQKEKDDVSERGYVILPNDYFEIVEVPA [R148L] | 0.312
MVQSCSAYGCKNRYDKDKPVSFHKFPLTRPSLCKEWEAAVRRKNFKPTKYSSICSEHFTPDCFKRECNNKLLKENAVPTIFLCTEPHDKKEDLLEPQEQLPPPPLPPPVSQVDAAIGLLMPPLQTPVNLSVFCDHNYTVEDTMHQRKKIHQLEQQVEKLRKKLKTAQQRCRRQERQLEKLKEVVHFQKEKDDVSERGYVILPNDYFEIVEVPA [R148K] | 1.02
MVQSCSAYGCKNRYDKDKPVSFHKFPLTRPSLCKEWEAAVRRKNFKPTKYSSICSEHFTPDCFKRECNNKLLKENAVPTIFLCTEPHDKKEDLLEPQEQLPPPPLPPPVSQVDAAIGLLMPPLQTPVNLSVFCDHNYTVEDTMHQRKEIHQLEQQVEKLRKKLKTAQQRCRRQERQLEKLKEVVHFQKEKDDVSERGYVILPNDYFEIVEVPA [R148E] | 0.167
MVQSCSAYGCKNRYDKDKPVSFHKFPLTRPSLCKEWEAAVRRKNFKPTKYSSICSEHFTPDCFKRECNNKLLKENAVPTIFLCTEPHDKKEDLLEPQEQLPPPPLPPPVSQVDAAIGLLMPPLQTPVNLSVFCDHNYTVEDTMHQRKNIHQLEQQVEKLRKKLKTAQQRCRRQERQLEKLKEVVHFQKEKDDVSERGYVILPNDYFEIVEVPA [R148N] | 0.303
MVQSCSAYGCKNRYDKDKPVSFHKFPLTRPSLCKEWEAAVRRKNFKPTKYSSICSEHFTPDCFKRECNNKLLKENAVPTIFLCTEPHDKKEDLLEPQEQLPPPPLPPPVSQVDAAIGLLMPPLQTPVNLSVFCDHNYTVEDTMHQRKAIHQLEQQVEKLRKKLKTAQQRCRRQERQLEKLKEVVHFQKEKDDVSERGYVILPNDYFEIVEVPA [R148A] | 0.487
MVQSCSAYGCKNRYDKDKPVSFHKFPLTRPSLCKEWEAAVRRKNFKPTKYSSICSEHFTPDCFKRECNNKLLKENAVPTIFLCTEPHDKKEDLLEPQEQLPPPPLPPPVSQVDAAIGLLMPPLQTPVNLSVFCDHNYTVEDTMHQRKGIHQLEQQVEKLRKKLKTAQQRCRRQERQLEKLKEVVHFQKEKDDVSERGYVILPNDYFEIVEVPA [R148G] | 0.324
MVQSCSAYGCKNRYDKDKPVSFHKFPLTRPSLCKEWEAAVRRKNFKPTKYSSICSEHFTPDCFKRECNNKLLKENAVPTIFLCTEPHDKKEDLLEPQEQLPPPPLPPPVSQVDAAIGLLMPPLQTPVNLSVFCDHNYTVEDTMHQRKDIHQLEQQVEKLRKKLKTAQQRCRRQERQLEKLKEVVHFQKEKDDVSERGYVILPNDYFEIVEVPA [R148D] | 0.202
MVQSCSAYGCKNRYDKDKPVSFHKFPLTRPSLCKEWEAAVRRKNFKPTKYSSICSEHFTPDCFKRECNNKLLKENAVPTIFLCTEPHDKKEDLLEPQEQLPPPPLPPPVSQVDAAIGLLMPPLQTPVNLSVFCDHNYTVEDTMHQRKTIHQLEQQVEKLRKKLKTAQQRCRRQERQLEKLKEVVHFQKEKDDVSERGYVILPNDYFEIVEVPA [R148T] | 0.312
MVQSCSAYGCKNRYDKDKPVSFHKFPLTRPSLCKEWEAAVRRKNFKPTKYSSICSEHFTPDCFKRECNNKLLKENAVPTIFLCTEPHDKKEDLLEPQEQLPPPPLPPPVSQVDAAIGLLMPPLQTPVNLSVFCDHNYTVEDTMHQRKFIHQLEQQVEKLRKKLKTAQQRCRRQERQLEKLKEVVHFQKEKDDVSERGYVILPNDYFEIVEVPA [R148F] | 0.196
MVQSCSAYGCKNRYDKDKPVSFHKFPLTRPSLCKEWEAAVRRKNFKPTKYSSICSEHFTPDCFKRECNNKLLKENAVPTIFLCTEPHDKKEDLLEPQEQLPPPPLPPPVSQVDAAIGLLMPPLQTPVNLSVFCDHNYTVEDTMHQRKCIHQLEQQVEKLRKKLKTAQQRCRRQERQLEKLKEVVHFQKEKDDVSERGYVILPNDYFEIVEVPA [R148C] | 0.26
MVQSCSAYGCKNRYDKDKPVSFHKFPLTRPSLCKEWEAAVRRKNFKPTKYSSICSEHFTPDCFKRECNNKLLKENAVPTIFLCTEPHDKKEDLLEPQEQLPPPPLPPPVSQVDAAIGLLMPPLQTPVNLSVFCDHNYTVEDTMHQRKRCHQLEQQVEKLRKKLKTAQQRCRRQERQLEKLKEVVHFQKEKDDVSERGYVILPNDYFEIVEVPA [I149C] | 0.454
MVQSCSAYGCKNRYDKDKPVSFHKFPLTRPSLCKEWEAAVRRKNFKPTKYSSICSEHFTPDCFKRECNNKLLKENAVPTIFLCTEPHDKKEDLLEPQEQLPPPPLPPPVSQVDAAIGLLMPPLQTPVNLSVFCDHNYTVEDTMHQRSRIHQLEQQVEKLRKKLKTAQQRCRRQERQLEKLKEVVHFQKEKDDVSERGYVILPNDYFEIVEVPA [K147S] | 0.621
MVQSCSAYGCKNRYDKDKPVSFHKFPLTRPSLCKEWEAAVRRKNFKPTKYSSICSEHFTPDCFKRECNNKLLKENAVPTIFLCTEPHDKKEDLLEPQEQLPPPPLPPPVSQVDAAIGLLMPPLQTPVNLSVFCDHNYTVEDTMHQRWRIHQLEQQVEKLRKKLKTAQQRCRRQERQLEKLKEVVHFQKEKDDVSERGYVILPNDYFEIVEVPA [K147W] | 0.458
MVQSCSAYGCKNRYDKDKPVSFHKFPLTRPSLCKEWEAAVRRKNFKPTKYSSICSEHFTPDCFKRECNNKLLKENAVPTIFLCTEPHDKKEDLLEPQEQLPPPPLPPPVSQVDAAIGLLMPPLQTPVNLSVFCDHNYTVEDTMHQRIRIHQLEQQVEKLRKKLKTAQQRCRRQERQLEKLKEVVHFQKEKDDVSERGYVILPNDYFEIVEVPA [K147I] | 0.346
MVQSCSAYGCKNRYDKDKPVSFHKFPLTRPSLCKEWEAAVRRKNFKPTKYSSICSEHFTPDCFKRECNNKLLKENAVPTIFLCTEPHDKKEDLLEPQEQLPPPPLPPPVSQVDAAIGLLMPPLQTPVNLSVFCDHNYTVEDTMHQRVRIHQLEQQVEKLRKKLKTAQQRCRRQERQLEKLKEVVHFQKEKDDVSERGYVILPNDYFEIVEVPA [K147V] | 0.383
MVQSCSAYGCKNRYDKDKPVSFHKFPLTRPSLCKEWEAAVRRKNFKPTKYSSICSEHFTPDCFKRECNNKLLKENAVPTIFLCTEPHDKKEDLLEPQEQLPPPPLPPPVSQVDAAIGLLMPPLQTPVNLSVFCDHNYTVEDTMHQRLRIHQLEQQVEKLRKKLKTAQQRCRRQERQLEKLKEVVHFQKEKDDVSERGYVILPNDYFEIVEVPA [K147L] | 0.458
MVQSCSAYGCKNRYDKDKPVSFHKFPLTRPSLCKEWEAAVRRKNFKPTKYSSICSEHFTPDCFKRECNNKLLKENAVPTIFLCTEPHDKKEDLLEPQEQLPPPPLPPPVSQVDAAIGLLMPPLQTPVNLSVFCDHNYTVEDTMHQRRRIHQLEQQVEKLRKKLKTAQQRCRRQERQLEKLKEVVHFQKEKDDVSERGYVILPNDYFEIVEVPA [K147R] | 0.9
MVQSCSAYGCKNRYDKDKPVSFHKFPLTRPSLCKEWEAAVRRKNFKPTKYSSICSEHFTPDCFKRECNNKLLKENAVPTIFLCTEPHDKKEDLLEPQEQLPPPPLPPPVSQVDAAIGLLMPPLQTPVNLSVFCDHNYTVEDTMHQRMRIHQLEQQVEKLRKKLKTAQQRCRRQERQLEKLKEVVHFQKEKDDVSERGYVILPNDYFEIVEVPA [K147M] | 0.271
MVQSCSAYGCKNRYDKDKPVSFHKFPLTRPSLCKEWEAAVRRKNFKPTKYSSICSEHFTPDCFKRECNNKLLKENAVPTIFLCTEPHDKKEDLLEPQEQLPPPPLPPPVSQVDAAIGLLMPPLQTPVNLSVFCDHNYTVEDTMHQRPRIHQLEQQVEKLRKKLKTAQQRCRRQERQLEKLKEVVHFQKEKDDVSERGYVILPNDYFEIVEVPA [K147P] | 0.502
MVQSCSAYGCKNRYDKDKPVSFHKFPLTRPSLCKEWEAAVRRKNFKPTKYSSICSEHFTPDCFKRECNNKLLKENAVPTIFLCTEPHDKKEDLLEPQEQLPPPPLPPPVSQVDAAIGLLMPPLQTPVNLSVFCDHNYTVEDTMHQRYRIHQLEQQVEKLRKKLKTAQQRCRRQERQLEKLKEVVHFQKEKDDVSERGYVILPNDYFEIVEVPA [K147Y] | 0.522
MVQSCSAYGCKNRYDKDKPVSFHKFPLTRPSLCKEWEAAVRRKNFKPTKYSSICSEHFTPDCFKRECNNKLLKENAVPTIFLCTEPHDKKEDLLEPQEQLPPPPLPPPVSQVDAAIGLLMPPLQTPVNLSVFCDHNYTVEDTMHQRNRIHQLEQQVEKLRKKLKTAQQRCRRQERQLEKLKEVVHFQKEKDDVSERGYVILPNDYFEIVEVPA [K147N] | 0.976
MVQSCSAYGCKNRYDKDKPVSFHKFPLTRPSLCKEWEAAVRRKNFKPTKYSSICSEHFTPDCFKRECNNKLLKENAVPTIFLCTEPHDKKEDLLEPQEQLPPPPLPPPVSQVDAAIGLLMPPLQTPVNLSVFCDHNYTVEDTMHQRTRIHQLEQQVEKLRKKLKTAQQRCRRQERQLEKLKEVVHFQKEKDDVSERGYVILPNDYFEIVEVPA [K147T] | 0.664
MVQSCSAYGCKNRYDKDKPVSFHKFPLTRPSLCKEWEAAVRRKNFKPTKYSSICSEHFTPDCFKRECNNKLLKENAVPTIFLCTEPHDKKEDLLEPQEQLPPPPLPPPVSQVDAAIGLLMPPLQTPVNLSVFCDHNYTVEDTMHQRHRIHQLEQQVEKLRKKLKTAQQRCRRQERQLEKLKEVVHFQKEKDDVSERGYVILPNDYFEIVEVPA [K147H] | 0.438
